The values below come from PMC314469, “Protein Interaction Networks by Proteome Peptide Scanning” (PLoS Biology, 2004).

The target of experiment [1] is T1, amphyphisin SH3 (AMPH_HUMAN), P49418.
T1 chain: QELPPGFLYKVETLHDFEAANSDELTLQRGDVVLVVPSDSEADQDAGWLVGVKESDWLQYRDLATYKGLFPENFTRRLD
As to the kind of experiment: SPOT array.

The target of experiment [2] is endophilin SH3 (SH3G2_HUMAN), Q99962. As to the kind of experiment: SPOT array.

B1: Q12972 185-198 (peptide)
chain: GNLDIQRPKRKRKN
In the case of B1, the normalised SPOT signal, Boehringer light units (BLU); mean over the file's lines of this peptide in experiment [1] stood at 2140; in experiment [2], 48.7.

B2: Q01167 591-604 (peptide)
chain: GPLGLRRPPSASSD
Regarding B2, the normalised SPOT signal, Boehringer light units (BLU); mean over the file's lines of this peptide was determined as 11.4 in experiment [1] and 116 in experiment [2].

B3: Q12984 78-91 (peptide)
chain: GPQRPRRPAKDAQP
On to B3, for which the normalised SPOT signal, Boehringer light units (BLU); mean over the file's lines of this peptide in experiment [1] came to 8400; in experiment [2], 10700.

B4: O00467 395-408 (peptide)
chain: GQKQPKRPRSESSS
As for B4, the results for the normalised SPOT signal, Boehringer light units (BLU); mean over the file's lines of this peptide in experiment [1] and in experiment [2] were 51.5 and 43.7, respectively.

B5: Q9P0U7 35-48 (peptide)
chain: GPRPPPRPARHRSH
Take B5: the normalised SPOT signal, Boehringer light units (BLU); mean over the file's lines of this peptide was 13100 in experiment [1] and 28600 in experiment [2].

B6: O14776 57-71 (peptide)
chain: GPPPPPRPPFGRPP
Consider B6, for which the normalised SPOT signal, Boehringer light units (BLU); mean over the file's lines of this peptide amounted to 1370 in experiment [1] and 5310 in experiment [2].

B7: Q9NPG4 302-315 (peptide)
chain: GQVILRRPLDYEKN
Turning to B7, the normalised SPOT signal, Boehringer light units (BLU); mean over the file's lines of this peptide in experiment [1] stood at 19.8; in experiment [2] it was 20.9.

B8: Q96SD2 167-180 (peptide)
chain: GPLDLRRPMRTVPG
B8: the normalised SPOT signal, Boehringer light units (BLU); mean over the file's lines of this peptide in experiment [1] was 1070; in experiment [2], 972.

B9: O75761 132-145 (peptide)
chain: GQRRLRRPLILGLG
Take B9: the normalised SPOT signal, Boehringer light units (BLU); mean over the file's lines of this peptide in experiment [1] came to 42.9; in experiment [2], 93.3.

B10: Q99946 106-119 (peptide)
chain: ALLEPRRPPHDYMP
Consider B10, for which the normalised SPOT signal, Boehringer light units (BLU); mean over the file's lines of this peptide worked out at 33 in experiment [1] and 55.2 in experiment [2].

B11: Q9BW19 13-26 (peptide)
chain: GNIELKRPLIKAPS
Regarding B11, the normalised SPOT signal, Boehringer light units (BLU); mean over the file's lines of this peptide in experiment [1] came to 25.9; in experiment [2], 28.8.

B12: Q9BR44 22-35 (peptide)
chain: GRSALRRPWRKSGS
For the molecule B12, the values for the normalised SPOT signal, Boehringer light units (BLU); mean over the file's lines of this peptide in experiment [1] and in experiment [2] were 531 and 160, respectively.

B13: BAC05028 186-200 (peptide)
chain: GRTPPARPPQDPAE
Regarding B13, the values for the normalised SPOT signal, Boehringer light units (BLU); mean over the file's lines of this peptide in experiment [1] and in experiment [2] were 69 and 129, respectively.

B14: P18887 443-457 (peptide)
chain: GPSSPQKPPTPEET
On to B14, for which the normalised SPOT signal, Boehringer light units (BLU); mean over the file's lines of this peptide in experiment [1] stood at 43.4; in experiment [2], 57.4.

B15: Q9Y687 56-69 (peptide)
chain: GPAPLRRPDSSDDR
On to B15, for which the normalised SPOT signal, Boehringer light units (BLU); mean over the file's lines of this peptide in experiment [1] is 46.8; in experiment [2] it was 45.8.

B16: Q9H8D9 660-673 (peptide)
chain: GQKLPRRPQPGPGE
Take B16: the normalised SPOT signal, Boehringer light units (BLU); mean over the file's lines of this peptide in experiment [1] worked out at 14.9; in experiment [2] it was 43.

B17: Q9H4N7 178-191 (peptide)
chain: GRAWLRRPHPRDVG
As for B17, the normalised SPOT signal, Boehringer light units (BLU); mean over the file's lines of this peptide in experiment [1] turned out to be 2.1; in experiment [2], 55.2.

B18: Q01974 4-17 (peptide)
chain: GSALPRRPLLSIPA
With B18, the normalised SPOT signal, Boehringer light units (BLU); mean over the file's lines of this peptide in experiment [1] was found to be 36.4; in experiment [2], 2140.

B19: O15085 1403-1416 (peptide)
chain: GNDDPRRPSRSPPS
Take B19: the normalised SPOT signal, Boehringer light units (BLU); mean over the file's lines of this peptide in experiment [1] worked out at 2210; in experiment [2], 306.

B20: O75016 262-275 (peptide)
chain: GRDFLQRPGRQPQA
Regarding B20, the normalised SPOT signal, Boehringer light units (BLU); mean over the file's lines of this peptide in experiment [1] worked out at 211; in experiment [2] it was 135.

B21: Q9ULI4 1050-1063 (peptide)
chain: GREAPGRPPRAVPK
Regarding B21, the values for the normalised SPOT signal, Boehringer light units (BLU); mean over the file's lines of this peptide in experiment [1] and in experiment [2] were 2140 and 19300, respectively.

B22: Q9HD26 258-271 (peptide)
chain: GRNDLKRPMQAPPG
Consider B22, for which the figures for the normalised SPOT signal, Boehringer light units (BLU); mean over the file's lines of this peptide in experiment [1] and in experiment [2] were 32.8 and 39.5, respectively.

B23: Q9ULW0 414-428 (peptide)
chain: GPILPKKPPVKPPT
As to B23, the normalised SPOT signal, Boehringer light units (BLU); mean over the file's lines of this peptide came to 44.6 in experiment [1] and 1800 in experiment [2].

B24: Q13495 380-393 (peptide)
chain: GPSPPYRPEKLSSP
As for B24, the normalised SPOT signal, Boehringer light units (BLU); mean over the file's lines of this peptide was found to be 243 in experiment [1] and 684 in experiment [2].

B25: Q9NZK9 120-133 (peptide)
chain: ALLTPHRPGRALSF
B25: the normalised SPOT signal, Boehringer light units (BLU); mean over the file's lines of this peptide in experiment [1] came out at 5440; in experiment [2], 491.

B26: Q9P2C5 54-67 (peptide)
chain: GQSAPRRPSAGDGA
Take B26: the normalised SPOT signal, Boehringer light units (BLU); mean over the file's lines of this peptide amounted to 23.6 in experiment [1] and 142 in experiment [2].

B27: BAC05410 275-289 (peptide)
chain: GPAPPPRPPQLERH
As for B27, the results for the normalised SPOT signal, Boehringer light units (BLU); mean over the file's lines of this peptide in experiment [1] and in experiment [2] were 1000 and 10700, respectively.

B28: P20810 625-639 (peptide)
chain: GQDKPVKPPTKKSE
B28: the normalised SPOT signal, Boehringer light units (BLU); mean over the file's lines of this peptide in experiment [1] stood at 48.2; in experiment [2], 232.

B29: Q96CI4 37-50 (peptide)
chain: GPAGLRRPPDKQPS
On to B29, for which the normalised SPOT signal, Boehringer light units (BLU); mean over the file's lines of this peptide in experiment [1] is 27.8; in experiment [2] it was 383.

B30: O00268 106-119 (peptide)
chain: GPPSPRRPLVPAGP
In the case of B30, the normalised SPOT signal, Boehringer light units (BLU); mean over the file's lines of this peptide in experiment [1] turned out to be 20.9; in experiment [2], 2840.

B31: Q9NUC1 730-743 (peptide)
chain: ALLDPRRPEIPTEQ
In the case of B31, the normalised SPOT signal, Boehringer light units (BLU); mean over the file's lines of this peptide in experiment [1] was 26.1; in experiment [2], 36.9.

B32: Q9HCE9 774-787 (peptide)
chain: GPERPKRPGSLLAP
In the case of B32, the normalised SPOT signal, Boehringer light units (BLU); mean over the file's lines of this peptide in experiment [1] came to 2440; in experiment [2], 12300.

B33: O15027 229-243 (peptide)
chain: GQQLPPRPPQSSSV
In the case of B33, the normalised SPOT signal, Boehringer light units (BLU); mean over the file's lines of this peptide was determined as 66.4 in experiment [1] and 486 in experiment [2].

B34: Q14163 165-178 (peptide)
chain: GQLQPSRPTRARGT
Take B34: the normalised SPOT signal, Boehringer light units (BLU); mean over the file's lines of this peptide in experiment [1] was found to be 4840; in experiment [2] it was 111.

B35: Q99687 39-53 (peptide)
chain: GPYGPHRPPQPLPP
For the molecule B35, the normalised SPOT signal, Boehringer light units (BLU); mean over the file's lines of this peptide turned out to be 54.3 in experiment [1] and 212 in experiment [2].

B36: P81489 112-126 (peptide)
chain: GPGKPERPPPQGGD
Take B36: the results for the normalised SPOT signal, Boehringer light units (BLU); mean over the file's lines of this peptide in experiment [1] and in experiment [2] were 33.9 and 193, respectively.

B37: O60307 800-813 (peptide)
chain: GPAGPKRPVFILGE
Turning to B37, the figures for the normalised SPOT signal, Boehringer light units (BLU); mean over the file's lines of this peptide in experiment [1] and in experiment [2] were 9.6 and 259, respectively.

B38: Q9BTV6 2-15 (peptide)
chain: GRPRPRRPAQYPAR
For the molecule B38, the normalised SPOT signal, Boehringer light units (BLU); mean over the file's lines of this peptide was found to be 73.1 in experiment [1] and 649 in experiment [2].
